Like-named read-outs stand apart in the source and are kept apart here. Positions of bridges follow the written chain, without caps; N, C: chain ends. Non-standard residues stand in square brackets, D forms with d. No end group written: not given here. Bip = N[C@@H](Cc1ccc(-c2ccccc2)cc1)C(=O)O; Ahp(2) = CCCCC[C@H](N)C(=O)O

What is called Kd is the constant that tells how readily two partners part at equilibrium. A word on the kon: it is the rate constant with which the complex forms. A word on the koff: it is a measure of how fast the partners let go of each other.

The target in assay [1] is T1, Recombinant human CD38 protein (R&D Systems) (human, UniProt P28907 43-300). Kind of assay: ELISA.
For assay [2], the target named is T1, Recombinant human CD38 protein (R&D …). Kind of assay: SPR (Biacore T200), CD38 immobilised on CM3 chip, single-cycle kinetics. The method, then: (§1) One of many useful technology for assessing CD38 binding is surface plasmon resonance (SPR). […] After the equilibration of Series S Sensor Chip CM3 (produced by cytiva: Former GE Healthcare) with Running Buffer (HBS-EP with 1% (v/v) DMSO), an EDC/NHS mixture was injected at a flow rate of […] for 4 minutes to thereby activate the functional groups on sensor chip. CD38 in 10 mM Acetate (pH5.5) was injected immobilized to at a flow rate of 5 L/min. For 4 minutes to immobilize the CD38 on the substrate surfaces of the sensor chip. Then Ethanolamine was injected at a flow rate of […] for 4 minutes. 1.0 M Ethanolamine (aq.) was injected at a flow rate of […] for 420 seconds for capping. 10 mM Peptides in DMSO were diluted to obtain 10 uM with Running Buffer, and prepared 100 nM, 50 nM, 25 nM, 10 nM, 5 nM of each peptide solutions (Peptide Samples).
(§2) Using these Peptide Samples, kinetics of peptides against CD38 was measured. The method adopted for sample measurement was a single-cycle kinetics method. The analysis was conducted using the evaluation software provided with Biacore T200. A DMSO correction curve obtained by solvent correction measurements was applied for the analysis. […]
(§3) KD values were calculated based on the association rate constant (ka) and dissociation rate constant (kd).
Background: Surface plasmon resonance follows binding to a sensor surface in real time, without labels.

For assay [3] the target is unchanged. Kind of assay: SPR (Biacore T200), single-cycle kinetics, CD38 immobilised on CM3 chip, 1:1 Binding model, 25 °C; figure legend names I-2 and the panel matches Table 4 (3.6*10^5, rounded there). How it is done:
as §1, §2, §3

For assay [4] the target is unchanged. Kind of assay: SPR (Biacore T200), single-cycle kinetics, CD38 immobilised on CM3 chip, 1:1 Binding model, 25 °C; figure legend names I-2 and the panel matches Table 4 (1.3*10^-2, rounded there). How it is done:
as §1, §2, §3

The target is the same in assay [5]. Kind of assay: SPR (Biacore T200), single-cycle kinetics, CD38 immobilised on CM3 chip, 1:1 Binding model, 25 °C; figure legend names I-2 and the panel matches Table 4 (3.5*10^-8, rounded there). How it is done: as §1, §2, §3
Assay [6] shares this target. Kind of assay: ELISA. This is another data set of the same source. (In general: In an ELISA, binding on a coated surface is turned into a signal by an enzyme label.)
Assay [7] shares this target. Kind of assay: SPR (Biacore T200), single-cycle kinetics, CD38 immobilised on CM3 chip, 1:1 Binding model, 25 °C; figure legend names I-1; Table 4 prints 1.8*10^-3 for this constant. How it is done:
as §1, §2, §3

For assay [8] the target is unchanged. Kind of assay: SPR (Biacore T200), single-cycle kinetics, CD38 immobilised on CM3 chip, 1:1 Binding model, 25 °C; figure legend names I-1 and the panel matches Table 4 (7.7*10^5, rounded there). The method, then:
as §1, §2, §3

Assay [9] shares this target. Kind of assay: SPR (Biacore T200), single-cycle kinetics, CD38 immobilised on CM3 chip, 1:1 Binding model, 25 °C; figure legend names I-1 and the panel matches Table 4 (2.3*10^-9, rounded there). How it is done:
as §1, §2, §3

B1: Compound I-2 (SEQ ID NO. 2) (peptide)
peptide: ALHXVLPXVWVC
modifications: not fully specified; MePhe (N-methyl-L-phenylalanine) at 4; Bph at 8; cyclic peptide (N-terminal ClAc-Ala cyclised with the C-terminal Cys), structure given as a drawing
notes: Printed as Ala Leu His MePhe Val Leu Pro Bph Val Trp Val Cys
For B1, the “Binding Assay (larger values indicate stronger binding)” value in assay [1] is 1.69. The Kd was 35 nM in assay [2] and 35.4 nM in assay [5]. In addition, in assay [3], the kon amounted to 358000 M⁻¹ s⁻¹. Further, the off-rate (koff) in assay [4] was 0.0127 s⁻¹.

B2: Compound I-1 (SEQ ID NO. 1) (peptide)
peptide: {CH2CO}-AR[Ahp(2)]YHDGVL[Bip][Ahp(2)]DC
modifications: thioether N-13
notes: Ala Arg Ahp Tyr His Asp Gly Val Leu Bph Ahp Asp Cys
Take B2: in [6], the “Binding Assay (larger values indicate stronger binding)” value came to 1.97. Besides, the Kd in assay [2] is 2.3 nM; in [9] it was 2.27 nM. The koff in assay [7] turned out to be 0.00175 s⁻¹. For the same molecule, in [8], the on-rate (kon) is 769000 M⁻¹ s⁻¹.

(Values after patent US20250263440A1, “CD38-BINDING AGENTS AND USES THEREOF” (PeptiDream Inc., priority 2019, published 2025).)
